Experimental findings from patent US20160228506A1, “Compositions and Formulations for Prevention and Reduction of Tumorigenesis, Cancer Cell Proliferation and Invasion, and Methods of Production and Use Thereof in Cancer Treatment” (PRONUTRIA, INC., priority 2013, published 2016) are described below.

A short description of the data set: SGF digest of 168 nutritive polypeptide library, intact protein by LC-MS/MS. The data set is classed as in vitro ADME. The conditions noted are these: 168 nutritive polypeptide library SGF digest, LC-MS/MS spectral counts. Here is the method: The in vitro intact half-life of multiple polypeptides in a complex mixture was determined using the simulated gastric in vitro digestion described above. Briefly, the 168 nutritive polypeptide library was generated as described herein by cloning, transforming, and expressing a gene library encoding 168 proteins as a single mixture. The recombinantly expressed proteins were purified from host cell proteins by IMAC purification as described herein.
The 168 Protein Library was treated with SGF as described above and the t=0 and t=10 min samples were analyzed for intact protein by LC-MS/MS. To begin, 10 μg of sample was loaded onto a 10% SDS-PAGE gel (Invitrogen) and run approximately 5 cm into the gel. The gel was excised into ten fractions from 100 kD to the dye front and the gel slices were processed by washing with 25 mM ammonium bicarbonate, followed by acetonitrile. Gel fractions were then reduced with 10 mM dithiothreitol at 60° C., followed by alkylation with 50 mM iodoacetamide at room temperature. Finally, the samples were digested with trypsin (Promega) at 37° C. for 4 h and the digestions were quenched with the addition of formic acid. The samples were then analyzed by nano LC/MS/MS using an EasynLC 1000 HPLC system interfaced to a ThermoFisher Q Exactive. Peptides were loaded on a trapping column and eluted over a 75 μm analytical column at 350 nL/min; both columns were packed with PepMap C18 3 μm resin (ThemoFisher). A 1 hour gradient was employed. The mass spectrometer was operated in data-dependent mode, with MS and MS/MS performed in the Orbitrap at 70,000 FWHM resolution and 17,500 FWHM resolution, respectively. The fifteen most abundant ions were selected for MS/MS. Data were searched against an appropriate database using Mascot to identify peptides. Mascot DAT files were parsed into the Scaffold software for validation, filtering and to create a nonredundant list per sample. Data were filtered at 1% protein and peptide false discovery rate (FDR) and requiring at least two unique peptides per protein. A full list of detected proteins and their spectral counts (SpC) was generated and reported as a function of each collected gel fraction. SpC are a count of the number of spectra identified for a given protein and are used as a measure of relative protein abundance (Liu, H. et al., Analytical Chemistry 2004, 76: 4193-4201). To calculate the percentage of intact protein remaining at the 10 min time point of the SGF digest the number of SpC representative of intact peptide in the t=10 min sample were divided by the number of SpC representative of intact peptide in the t=0 min sample. The number of SpC representative of intact peptide was defined as the sum of the SpC in the fraction with the highest number of SpC assigned to that protein in the t=0 min sample and the two flanking fractions.

B1: SEQID-00607: protein of the 168 nutritive polypeptide library (protein)
chain: MALQDDWQQSHLERRQVLAESQKQIWATIGLWQRERYSQAITQKQDRQAFVSQLKQENQAFLADAHNNHRQQAEQLAEDLKEFVRSLQKETATFLEESAQSRAEKAEELAQELRDFRAELRDTVAQWQQQWQQQDQERAAGRRKLAQQVQGDLQEFNIIRTIMAEKLLQQTQEAKAERLAGIQSMFEDMGKFRMQLQEYRREREKSVWGGERVKSTPATPQKAKASQTLVPQTKPKAVKSAPSTTTAAQSTTPTAVVVAEPTKPAVPPNQPKPTTVVPHPPNPG
modifications: Arthrospira platensis C1
notes: protein of the 168 nutritive polypeptide library
In the case of B1, the “% Intact Protein at 10 min” value is listed as 0%.

B2: SEQID-00564: protein of the 168 nutritive polypeptide library (protein)
chain: MAPKAEKKPAAKKPAEEEPAAPAEKAPAGKKPDLIKRLPAGKSAGKEGGVDKKGRKKAKKSVETYKIYIFKVLKQVHPDIGISSKAMSIMNSFINDIFEKLAGEAAKLARYNKKPTITSREIQTSVRLVLPGELAKHAVSEGTKAVTKFTSS
modifications: Zea mays
notes: as for B1
For B2, the “% Intact Protein at 10 min” value came to 89.6%.

B3: SEQID-00562: protein of the 168 nutritive polypeptide library (protein, listed as Lactobacillus acidophilus)
chain: MKKFASFVLGAVAGCAAGFLAGSLLVSDEQVDDVKNKIKDNDKLQDLKKKYDNGTEIVKNQLASFPKNVEDDSELKDFDDIVIDDSNKDDDVTAGDNAQESVDDLNNAEEEHNAEDAEEDKPEA
modifications: source: /note="strain 30SC"
notes: as for B1
Consider B3, for which the “% Intact Protein at 10 min” value was 0%.

B4: SEQID-00602: protein of the 168 nutritive polypeptide library (protein, listed as Lactobacillus acidophilus)
chain: MKSYMKKIAAVVAVAGVALSTAACSNGGSNSTVASYKGGKITQQQYYDEMKKSQAGKSTLANMIINRALEQQYGKYVSSKKVDKQYNNYKKQYGSQFSAVLQQNGMTASSFKENLKTNLLSEQALKHIKKISKKQEQQAWKSYQPKVTVQHILVAKKSTAQSIIKQLKDGKSFKSLAKKYSLDTATKNKAGKLPAFDSTDNTLDSSFKTAAFKLKTGEVTSTPVKSQSGYHVIKMISHPAKGKFADHKKAIDDEIYASMAQDQATMKDVISTVLKRADVSIKDSDLKDVLASYVSTTSATK
modifications: source: /note="strain 30SC"
notes: as for B1
Regarding B4, the “% Intact Protein at 10 min” value stood at 0%.

B5: SEQID-00591: protein of the 168 nutritive polypeptide library (protein, listed as Saccharomyces cerevisiae)
chain: MLNRCISRNTRLPVNLRIASRFYSDGPLGGAGPGNPQDIFIKRERAKEDYYARQQEREQLAHVKEQLKEHKKKLENLENKINNLSK
modifications: source: /note="strain ATCC 204508 / S288c"
notes: as for B1
Consider B5, for which the “% Intact Protein at 10 min” value is given as 20%.

B6: SEQID-00573: protein of the 168 nutritive polypeptide library (protein, listed as Cicer arietinum)
chain: MAPAKAEKKPAEKKPAAEKAPAEKKPKAEKKISKEGTSDKKKKRVKKSVETYKIYIFKVLKQVHPDIGISSKAMGIMNSFINDIFEKLAQEASRLARYNKKPTITSREIQTAVRLVLPGELAKHAVSEGTKAVTKFTSS
As to B6, the “% Intact Protein at 10 min” value was 66.7%.

B7: SEQID-00570: protein of the 168 nutritive polypeptide library (protein, listed as Saccharomyces cerevisiae)
chain: MFLRNSVLRTAPVLRRGITTLTPVSTKLAPPAAASYSQAMKANNFVYVSGQIPYTPDNKPVQGSISEKAEQVFQNVKNILAESNSSLDNIVKVNVFLADMKNFAEFNSVYAKHFHTHKPARSCVGVASLPLNVDLEMEVIAVEKN
modifications: source: /note="strain ATCC 204508 / S288c"
notes: as for B1
B7: the “% Intact Protein at 10 min” value worked out at 91.4%.

B8: SEQID-00574: protein of the 168 nutritive polypeptide library (protein, listed as Lactobacillus acidophilus)
chain: MPTINQLVRKGRHSKVTKSKSPALNYSYNSMKKESVFNPAPQMRGVATRVGTMTPKKPNSALRKYARVRLSNLIEVTAYIPGEGHNLQEHSVVLIRGGRVKDLPGVRYHIVRGALDTAGVDGRKQSRSKYGAKKD
modifications: source: /note="strain 30SC"
notes: as for B1
Regarding B8, the “% Intact Protein at 10 min” value came out at 0%.

B9: SEQID-00599: protein of the 168 nutritive polypeptide library (protein, listed as Agaricus bisporus)
chain: MSESLRYLGSLEGHKGWVTAIATSSENPDMILTASRDKTIIVWQLTREDDSYGYPKRILHGHNHFVSDVVISSDGQFALSSSWDHTLRLWDLNTGVTTRRFVGHSSDVLSVSFSADNRQIVSGSRDRTIKLWNTLGECKFDIKEDGHSEWVSCVRFSPNVANPVIVSAGWDKVVKVWELSKFKLKTNHYGHTGYINTVSVSPDGSLAASGGKDGITMLWDLNEGKHLYSLEAGDVVNALVFSPNRYWLCAATASCVKIFDLESKSIVDELKPTYTDVGEDARQPECVSIAWSADGQTLFTGYTDNAVRVWIVTS
modifications: source: /note="var. bisporus"; source: /note="strain H97 / ATCC MYA-4626 / FGSC 10389"
notes: as for B1
Regarding B9, the “% Intact Protein at 10 min” value was 0%.

B10: SEQID-00592: protein of the 168 nutritive polypeptide library (protein)
chain: MAQTVVLKVGMSCEGCVGAVKRVLGKMEGVESYDVDIMEQKVTVKGNVTPDAVLQTVSKTGKKTSFWEAEAVTSESATPAGATA
modifications: Zea mays
notes: as for B1
In the case of B10, the “% Intact Protein at 10 min” value is 24.3%.

B11: SEQID-00609: protein of the 168 nutritive polypeptide library (protein, listed as Saccharomyces cerevisiae)
chain: MSNPFDLLGNDVEDADVVVLPPKEIVKSNTSSKKADVPPPSADPSKARKNRPRPSGNEGAIRDKTAGRRNNRSKDVTDSATTKKSNTRRATDRHSRTGKTDTKKKVNQGWGDDKKELSAEKEAQADAAAEIAEDAAEAEDAGKPKTAQLSLQDYLNQQANNQFNKVPEAKKVELDAERIETAEKEAYVPATKVKNVKSKQLKTKEYLEFDATFVESNTRKNFGDRNNNSRNNFNNRRGGRGARKGNNTANATNSANTVQKNRNIDVSNLPSLA
modifications: source: /note="strain ATCC 204508 / S288c"
notes: as for B1
Take B11: the “% Intact Protein at 10 min” value is 0%.

B12: SEQID-00581: protein of the 168 nutritive polypeptide library (protein)
chain: MPKRQRKLAPPRGYKMHVKKGDTVQVIAGRDKGKVGEVISTLPKLSKVVVRDVNVRTKHVKPQQEGEGGRIVNFEAPIHSSNVMLYSTKEKVASRVSYTFTEDGRKVRMLKKTGEVID
modifications: Arthrospira platensis NIES-39
notes: as for B1
As for B12, the “% Intact Protein at 10 min” value was 33.3%.

B13: SEQID-00590: protein of the 168 nutritive polypeptide library (protein, listed as Lactobacillus acidophilus)
chain: MANKAELVSEVASKTKLTKKEVAAAVDAIFGSIQDNLAKGEKVQLIGFGTFEVRHRAARKGRNPQTGDEIEIPASEVPAFKPGKALKEAVK
modifications: source: /note="strain 30SC"
notes: as for B1
Turning to B13, the “% Intact Protein at 10 min” value is reported as 0%.
